Measured values taken from patent publication US20170096479A1 (published 2017).

Columns and labels:
human VEGF (hVEGF) [1] = biological target: T1, human VEGF (hVEGF) (human, UniProt P15692 181-395); assay: cell-based or functional assay
T1 sequence: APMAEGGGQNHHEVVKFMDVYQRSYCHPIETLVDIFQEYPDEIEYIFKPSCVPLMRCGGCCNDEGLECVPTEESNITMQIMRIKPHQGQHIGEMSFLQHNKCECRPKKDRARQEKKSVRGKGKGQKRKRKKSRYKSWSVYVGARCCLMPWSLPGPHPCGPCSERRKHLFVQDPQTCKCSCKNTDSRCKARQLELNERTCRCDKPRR

human VEGF (hVEGF) [2] = biological target: T1, human VEGF (hVEGF); assay: SPR BIACORE T200, single cycle
Experimental: To confirm the results obtained from the deep mutagenesis scanning, selected mutations were expressed and purified, and their affinity towards VEGF was measured using BIACORE® surface plasmon resonance (SPR) and their thermostability (as assessed by melting temperature, Tₘ) was measured using differential scanning fluorimetry (DSF).
To determine the binding affinity of selected Fab variants, SPR measurement with a BIACORE® T200 instrument was used. Briefly, series S sensor chip CM5 was activated with 1-ethyl-3-(3-dimethylaminopropyl) carbodiimide (EDC) and N-hydroxysuccinimide (NHS) reagents according to the supplier's instructions, and human VEGF (hVEGF) was coupled to achieve 50-80 response units (RU), then following by blocking un-reacted groups with 1 M ethanolamine.
Three-fold serial dilutions of Fab in HBS-P buffer (0.01 M HEPES pH 7.4, 0.15 M NaCl, 0.005% surfactant P20) from low (0.02 nM) to high (50 nM) were injected (flow rate: 30 μl/min). The binding responses on hVEGF were corrected by subtracting of RU from a blank flow cell. The sensorgram was recorded and subject to reference and buffer subtraction before evaluating by BIACORE® T200 Evaluation Software (version 2.0). Association rates (kₒₙ) and dissociation rates (koff) were calculated using a simple one-to-one Langmuir binding model. The equilibrium dissociation constant (Kd) was calculated as the ratio koff/kₒₙ.

human VEGF165 = human VEGF165 (human, UniProt P15692-4 27-191); assay: cell-based or functional assay
human VEGF (hVEGF) [3] = biological target: T1, human VEGF (hVEGF); assay: SPR BIACORE kinetics

B1: G6.31 AAEE (LC-N94A.LC-F83A.HC-A40E.HC-T57E) (Fab, V domains shown)
VH: EVQLVESGGGLVQPGGSLRLSCAASGFTISDYWIHWVRQEPGKGLEWVAGITPAGGYEYYADSVKGRFTISADTSKNTAYLQMNSLRAEDTAVYYCARFVFFLPYAMDYWGQGTLVTVSS
VL: DIQMTQSPSSLSASVGDRVTITCRASQDVSTAVAWYQQKPGKAPKLLIYSASFLYSGVPSRFSGSGSGTDFTLTISSLQPEDAATYYCQQGYGAPFTFGQGTKVEIK
In the case of B1, the “IC50 relative to G6.31, VEGF-induced HUVEC migration assay” value (human VEGF (hVEGF) [1]) is reported as 0.9 relative to G6.31.

B2: G6.31 HC-T57E (Fab, name in Kabat numbering, V domains shown)
VH: EVQLVESGGGLVQPGGSLRLSCAASGFTISDYWIHWVRQAPGKGLEWVAGITPAGGYEYYADSVKGRFTISADTSKNTAYLQMNSLRAEDTAVYYCARFVFFLPYAMDYWGQGTLVTVSS
VL: DIQMTQSPSSLSASVGDRVTITCRASQDVSTAVAWYQQKPGKAPKLLIYSASFLYSGVPSRFSGSGSGTDFTLTISSLQPEDFATYYCQQGYGNPFTFGQGTKVEIK
notes: Fab
In the case of B2, the kon (human VEGF (hVEGF) [2]) is reported as 1.93e+08 M⁻¹ s⁻¹.

B3: G6.31 LC-N94A (Fab, V domains shown)
VH: EVQLVESGGGLVQPGGSLRLSCAASGFTISDYWIHWVRQAPGKGLEWVAGITPAGGYTYYADSVKGRFTISADTSKNTAYLQMNSLRAEDTAVYYCARFVFFLPYAMDYWGQGTLVTVSS
VL: DIQMTQSPSSLSASVGDRVTITCRASQDVSTAVAWYQQKPGKAPKLLIYSASFLYSGVPSRFSGSGSGTDFTLTISSLQPEDFATYYCQQGYGAPFTFGQGTKVEIK
For B3, the “IC50 relative to G6.31, VEGF-induced HUVEC migration assay” value (human VEGF (hVEGF) [1]) was 5.2 relative to G6.31.

B4: G6.31 LC-N94A.LC-F83A (Fab, V domains shown)
VH: EVQLVESGGGLVQPGGSLRLSCAASGFTISDYWIHWVRQAPGKGLEWVAGITPAGGYTYYADSVKGRFTISADTSKNTAYLQMNSLRAEDTAVYYCARFVFFLPYAMDYWGQGTLVTVSS
VL: DIQMTQSPSSLSASVGDRVTITCRASQDVSTAVAWYQQKPGKAPKLLIYSASFLYSGVPSRFSGSGSGTDFTLTISSLQPEDAATYYCQQGYGAPFTFGQGTKVEIK
With B4 the “IC50 relative to G6.31, VEGF-induced HUVEC migration assay” value (human VEGF (hVEGF) [1]) was 5.1 relative to G6.31.

B5: G6.31 LC-Q89T (Fab, V domains shown)
VH: EVQLVESGGGLVQPGGSLRLSCAASGFTISDYWIHWVRQAPGKGLEWVAGITPAGGYTYYADSVKGRFTISADTSKNTAYLQMNSLRAEDTAVYYCARFVFFLPYAMDYWGQGTLVTVSS
VL: DIQMTQSPSSLSASVGDRVTITCRASQDVSTAVAWYQQKPGKAPKLLIYSASFLYSGVPSRFSGSGSGTDFTLTISSLQPEDFATYYCTQGYGNPFTFGQGTKVEIK
notes: Fab
Binder B5 has a kon (human VEGF (hVEGF) [2]) of 1.17e+08 M⁻¹ s⁻¹.

B6: HA100K-G6.31 AARR (Fab, V domains shown)
VH: EVQLVESGGGLVQPGGSLRLSCAASGFTISDYWIHWVRQAPGKGLEWVAGITPAGGYTRYADSVKGRFTISADTSKNTAYLQMRSLRAEDTAVYYCARFVFFLPYAMDYWGQGTLVTVSS
VL: DIQMTQSPSSLSASVGDRVTITCRASQDVSTAVAWYQQKPGKAPKLLIYSASFLYSGVPSRFSGSGSGTDFTLTISSLQPEDAATYYCQQGYGAPFTFGQGTKVEIK
modifications: free hinge cysteine of the Fab-C heavy chain conjugated to maleimide-functionalized linear hyaluronic acid (Mw 100 kDa)
B6 was tested, and the “qAC50 (equivalent to IC50), pKDR receptor activation assay on KDR-CHO cells” value (human VEGF165) was 0.135 nM.

B7: R19HCLC2 (Fab, V domains shown)
VH: EEQLVEEGGGLVQPGESLRLSCAASGFEISDYWIHWVRQEPGEGLEWVAGITPAGGYEYYADSVEGRFTISADTSENTAYLQMNELRAEDTAVYYCARFVFFLPYAMDYWGQGELVTVSS
VL: DIQMTQSPSSLSASVGDEVTITCRASQDVSTAVAWYQQKPGEAPKLLIYSASFLYSGVPSRFSGSGSGTDFTLTIESLQPEDAATYYCQQGYGAPFTFGQGTKVEIK
notes: Fab
For B7, the Kd (human VEGF (hVEGF) [3]) was 0.0949 nM.
